{
  "source": "patent US20020151484A1",
  "about": "(HYBRIGENICS, published 2002)",
  "binders": {"B1": {"name": "SID polypeptide of SEQ ID No 4, E2 (100%), HCV strain H77 nt 1871-1987 (other)", "chain": "PSPVVVGTTDRSGAPTYSWGANDTDVFVLNNTRPPLG", "notes": "Intersection of yeast two-hybrid prey fragments; also called SID E2 (100%)"}, "B2": {"name": "Bait polypeptide of SEQ ID No 105, NS5A (100%), HCV strain H77 nt 7274-7549 (other)", "chain": "HGCPLPPPRSPPVPPPRKKRTVVLTESTLSTALAELATKSFGSSSTSGITGDNTTTSSEPAPSGCPPDSDVESYSSMPPLEGEPGDPDLS", "notes": "also called Bait NS5A (100%)"}, "B3": {"name": "Bait polypeptide of SEQ ID No 104, NS5A (100%), HCV strain H77 nt 7019-7249 (other)", "chain": "IEANLLWRQEMGGNITRVESENKVVILDSFDPLVAEEDEREVSVPAEILRKSRRFARALPVWARPDYNPPLVETW", "notes": "also called Bait NS5A (100%)"}, "B4": {"name": "SID polypeptide of SEQ ID No 32, NS5B (100%), HCV strain H77 nt 7769-8011 (other)", "chain": "not shown", "notes": "Intersection of yeast two-hybrid prey fragments; also called SID NS5B (100%)"}, "B5": {"name": "Bait polypeptide of SEQ ID No 108, NS5B (100%), HCV strain H77 nt 7856-8458 (other)", "chain": "not shown", "notes": "also called Bait NS5B (100%)"}, "B6": {"name": "SID polypeptide of SEQ ID No 37, NS4B (57%)/NS5A(41%), HCV strain H77 nt 6194-6303 (other)", "chain": "TVTQLLRRLHQWISSECTTPCSGSWLRDIWDWICE", "notes": "Intersection of yeast two-hybrid prey fragments; also called SID NS4B (57%)/NS5A(41%)"}, "B7": {"name": "Bait polypeptide of SEQ ID No 83, NS2 (12%)/NS3 (87%), HCV strain H77 nt 3312-4150 (other)", "chain": "AACGDIINGLPVSARRGQEILLGPADGMVSKGWRLLAPITAYAQQTRGLLGCIITSLTGRDKNQVEGEVQIVSTATQTFLATCINGVCWTVYHGAGTRTIASPKGPVIQMYTNVDQDLVGWPAPQGSRSLTPCTCGSSDLYLVTRHADVIPVRRRGDSRGSLLSPRPISYLKGSSGGPLLCPAGHAVGLFRAAVCTRGVAKAVDFIPVENLGTTMRSPVFTDNSSPPAVPQSFQVAHLHAPTGSGKSTKVPAAYAAQGYKVLVLNPSVAATLGFGAYM", "notes": "also called Bait NS2 (12%)/NS3 (87%)"}, "B8": {"name": "SID polypeptide of SEQ ID No 36, E2 (100%), HCV strain H77 nt 1751-1865 (other)", "chain": "PISYANGSGLDERPYCWHYPPRPCGIVPAKSVCGPVY", "notes": "as for B1"}, "B9": {"name": "SID polypeptide of SEQ ID No 5, NS3 (100%), HCV strain H77 nt 4787-5242 (other)", "chain": "SRTQRRGRTGRGKPGIYRFVAPGERPSGMFDSSVLCECYDAGCAWYELTPAETTVRLRAYMNTPGLPVCQDHLEFWEGVFTGLTHIDAHFLSQTKQSGENFPYLVAYQATVCARAQAPPPSWDQMWKCLIRLKPTLHGPTPLLYRLGAVQ", "notes": "Intersection of yeast two-hybrid prey fragments; also called SID NS3 (100%)"}, "B10": {"name": "SID polypeptide of SEQ ID No 34, NS5B (100%), HCV strain H77 nt 7775-8011 (other)", "chain": "not shown", "notes": "as for B4"}, "B11": {"name": "SID polypeptide of SEQ ID No 9, NS3 (100%), HCV strain H77 nt 4676-4801 (other)", "chain": "GDFDSVIDCNTCVTQTVDFSLDPTFTIETTTLPQDAVSRT", "notes": "as for B9"}, "B12": {"name": "Bait polypeptide of SEQ ID No 106, NS5B (100%), HCV strain H77 nt 7613-8027 (other)", "chain": "not shown", "notes": "also called Bait NS5B (100%)"}},
  "assay_in_all_cases": "yeast two-hybrid, mating, His3/LacZ reporters",
  "key": {"[1]": {"biological_target": "T1, Bait polypeptide of SEQ ID No 79, E1 (100%), HCV strain H77 nt 995-1342 (hepatitis C virus strain H77, UniProt P27958 219-332)", "T1 construct": "also called Bait E1 (100%)", "T1 chain": "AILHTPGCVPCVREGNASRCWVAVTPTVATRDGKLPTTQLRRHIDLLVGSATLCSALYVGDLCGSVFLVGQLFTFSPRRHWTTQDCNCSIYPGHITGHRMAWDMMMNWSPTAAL"}, "[2]": {"biological_target": "T2, SID polypeptide of SEQ ID No 30, NS4B (100%), HCV strain H77 nt 6029-6194 (hepatitis C virus strain H77, UniProt P26664 1897-1950)", "T2 construct": "Intersection of yeast two-hybrid prey fragments; also called SID NS4B (100%)", "T2 sequence": "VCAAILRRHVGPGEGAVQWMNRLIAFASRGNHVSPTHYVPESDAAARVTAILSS"}, "[3]": {"biological_target": "T3, SID polypeptide of SEQ ID No 29, NS3 (100%), HCV strain H77 nt 4451-4790 (hepatitis C virus strain H77, UniProt P27958 1371-1482)", "T3 construct": "Intersection of yeast two-hybrid prey fragments; also called SID NS3 (100%)", "T3 sequence": "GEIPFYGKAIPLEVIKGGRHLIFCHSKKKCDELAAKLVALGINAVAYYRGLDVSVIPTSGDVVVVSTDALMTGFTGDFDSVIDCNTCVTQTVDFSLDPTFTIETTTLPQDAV"}, "[4]": {"biological_target": "T4, Bait polypeptide of SEQ ID No 107, NS5B (100%), HCV strain H77 nt 7838-8743 (hepatitis C virus strain H77, UniProt P26664 2500-2799)", "T4 construct": "also called Bait NS5B (100%)"}, "[5]": {"biological_target": "T5, SID polypeptide of SEQ ID No 33, NS3 (100%), HCV strain H77 nt 4715-4901 (hepatitis C virus strain H77, UniProt P27958 1459-1519)", "T5 construct": "Intersection of yeast two-hybrid prey fragments; also called SID NS3 (100%)", "T5 sequence": "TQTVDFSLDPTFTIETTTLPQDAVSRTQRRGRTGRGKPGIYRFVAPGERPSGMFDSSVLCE"}, "[6]": {"biological_target": "T6, Bait polypeptide of SEQ ID No 112, NS5B (100%), HCV strain H77 nt 8996-9220 (hepatitis C virus strain H77, UniProt Q03463 2886-2958)", "T6 construct": "also called Bait NS5B (100%)"}, "[7]": {"biological_target": "T7, SID polypeptide of SEQ ID No 8, NS4A (59%)/NS4B (40%), HCV strain H77 nt 5375-5542 (hepatitis C virus strain H77, UniProt P27958 1679-1732)", "T7 construct": "Intersection of yeast two-hybrid prey fragments; also called SID NS4A (59%)/NS4B (40%)", "T7 sequence": "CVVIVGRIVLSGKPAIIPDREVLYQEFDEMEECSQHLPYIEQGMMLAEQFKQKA"}, "[8]": {"biological_target": "T8, Bait polypeptide of SEQ ID No 111, NS5B (100%), HCV strain H77 nt 8708-8978 (hepatitis C virus strain H77, UniProt P27958 2790-2878)", "T8 construct": "also called Bait NS5B (100%)"}, "[9]": {"biological_target": "T9, Bait polypeptide of SEQ ID No 80, E1 (4%)/E2 (95%), HCV strain H77 nt 1478-1756 (hepatitis C virus strain H77, UniProt P27958 380-470)", "T9 construct": "also called Bait E1 (4%)/E2 (95%)"}, "[10]": {"biological_target": "T10, Bait polypeptide of SEQ ID No 109, NS5B (100%), HCV strain H77 nt 7976-8759 (hepatitis C virus strain H77, UniProt P26664 2546-2805)", "T10 construct": "also called Bait NS5B (100%)"}, "[11]": {"biological_target": "T11, Bait polypeptide of SEQ ID No 84, NS3 (100%), HCV strain H77 nt 3767-4244 (hepatitis C virus strain H77, UniProt P27958 1143-1300)", "T11 construct": "also called Bait NS3 (100%)", "T11 chain": "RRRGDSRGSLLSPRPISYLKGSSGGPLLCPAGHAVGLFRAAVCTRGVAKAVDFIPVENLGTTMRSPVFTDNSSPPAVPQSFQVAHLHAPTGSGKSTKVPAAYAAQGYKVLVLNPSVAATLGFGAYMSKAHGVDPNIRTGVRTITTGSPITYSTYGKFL"}, "[12]": {"biological_target": "T12, SID polypeptide of SEQ ID No 31, NS5B (100%), HCV strain H77 nt 8354-8665 (hepatitis C virus strain H77, UniProt P26664 2672-2773)", "T12 construct": "Intersection of yeast two-hybrid prey fragments; also called SID NS5B (100%)"}},
  "data": [
    {"binder": "B1", "values": [
      {"measurement": "binding result", "setting": "[1]", "result": "binds"}
    ]},
    {"binder": "B2", "values": [
      {"measurement": "binding result", "setting": "[2]", "result": "binds"}
    ]},
    {"binder": "B3", "values": [
      {"measurement": "binding result", "setting": "[3]", "result": "binds"}
    ]},
    {"binder": "B4", "values": [
      {"measurement": "binding result", "setting": "[4]", "result": "binds"}
    ]},
    {"binder": "B5", "values": [
      {"measurement": "binding result", "setting": "[5]", "result": "binds"}
    ]},
    {"binder": "B6", "values": [
      {"measurement": "binding result", "setting": "[6]", "result": "binds"}
    ]},
    {"binder": "B7", "values": [
      {"measurement": "binding result", "setting": "[7]", "result": "binds"}
    ]},
    {"binder": "B8", "values": [
      {"measurement": "binding result", "setting": "[8]", "result": "binds"}
    ]},
    {"binder": "B9", "values": [
      {"measurement": "binding result", "setting": "[9]", "result": "binds"}
    ]},
    {"binder": "B10", "values": [
      {"measurement": "binding result", "setting": "[10]", "result": "binds"}
    ]},
    {"binder": "B11", "values": [
      {"measurement": "binding result", "setting": "[11]", "result": "binds"}
    ]},
    {"binder": "B12", "values": [
      {"measurement": "binding result", "setting": "[12]", "result": "binds"}
    ]}
  ]
}
